We go through 13 molecules from US20200255503A1.

In the assay the target is natural Fel d1 (cat (Felis domesticus)) (UniProt P30438). Kind of assay: SPR, mAb captured, nFel d1 injected, 25 C. A general note: In SPR one partner is held on a chip, and binding of the other changes the refractive index at the surface.

B1: H1M1241N (antibody, V domains shown)
VH: EVQLVESGGGLVKPGGSLRLSCAASGFTFSSYSMNWVRQAPGKGLEWVSSISSRSSYIYYADSVKGRFTISRDNAKNSLYLQMNSLRAEDTAVYYCARDHIVVVPGASYYYYGMDVWGQGTTVTVSS
VL: DIQMTQSPSSLSASVGDRVTITCRASQGIRNDLGWYQQKPGKAPKRLISAASSLQSGVPSRFSGSGSGTEFTLTISSLQPEDFATYYCLQHNSYPLTFGGGTKVEIK
Take B1: the Kd came to 3.63 nM, the off-rate (koff) was 0.000662 s⁻¹, the kon amounted to 182000 M⁻¹ s⁻¹ and the t1/2 was 17 min.

B2: H1M1230N (antibody, V domains shown)
VH: EVQLVESGGGLVQPGGSLRLSCTASGFIFSNFWMTWVRQAPGKGLEWVANIKQDGSETYCVDSVKGRFTISRDHAKNSLFLQMNSLRAEDTAVYYCARGAGTIYYYGMDVWGQGTTVIVSS
VL: DIQMTQSPSSVSASVGDRLTITCRASQDISSWLTWYQQKPGKAPNLLIYAASGLQSGVPSRFSGSGSGTDFTLTISNLQPEDFATYYCQQANSFPLTFGQGTRLEIK
In the case of B2, the Kd came to 3.37 nM, the koff was found to be 0.000869 s⁻¹, the on-rate constant (kon) was determined as 258000 M⁻¹ s⁻¹ and the t1/2 came out at 13 min.

B3: H4H2590S (antibody, human IgG4, V domains shown)
VH: QVQLVESGGGLVKPGGSLRLSCAASGFTFSDYYMNWIRQAPGKGLEWISYISSGGSTTYYADSVKGRFTISRDNAKNSLYLQMNSLRAEDTAVYYCARDGKYNTSPGDYWGQGTLVTVSS
VL: EIVLTQSPDFQSVTPKEKVTITCRASQSIGSSLHWYQQKPDQSPKLLIKYASQSFSGVPSRFSGSGSGTDFTLTINSLEAEDAATYYCLQSSSLRTFGQGTKVDIK
In turn, B3 registered a Kd of 0.655 nM, a koff of 0.000802 s⁻¹, an on-rate constant (kon) of 1.23e+06 M⁻¹ s⁻¹ and a t1/2 of 14 min.

B4: H4H2607B (antibody, human IgG4, V domains shown)
VH: EVQLVESGGGLVKPGGSLRLSCAASGFTFSDYYMNWIRQAPGKGLEWISYLSSSGSATYYADSVKGRFTISRDNAKNSLYLQMNSLRAEDTAVYYCARDGKYNTVAGDYWGQGTTVTVSS
VL: DIQLTQSPSSLSASVGDRVTITCRASQGIRNDLGWYQQKPGKAPKRLIYAASSLQSGVPSRFSGSGSGTEFTLTISSLQPEDFATYYCLQHNSYPYTFGQGTKVEIKR
B4 showed a Kd of 0.307 nM, a koff of 0.00091 s⁻¹, an on-rate constant (kon) of 2.97e+06 M⁻¹ s⁻¹ and a t1/2 of 13 min.

B5: H4H2592B (antibody, human IgG4, V domains shown)
VH: QVQLVESGGGLVKPGGSLRLSCAASGFTFSDYYMNWIRQAPGKGLEWISYISSSGSTTYYADSVKGRFTISRDNAKNSLFLQMNSLRGEDTAVYYCARDGRYNTVAGDYWGQGTTVTVSS
VL: EIVMTQSPDFQSVAPKEKVTITCRASQNIGGSLHWYQQKPDQSPKLLIKYASQSFSGVPSRFSGSGSGTDFTLTINSLEAEDAATYYCLQSYTLRTFGQGTKVEIKR
Consider B5, for which the dissociation constant (Kd) stood at 0.641 nM, the off-rate (koff) came out at 0.000728 s⁻¹, the kon is 1.14e+06 M⁻¹ s⁻¹ and the t1/2 was 16 min.

B6: H4H2608B (antibody, human IgG4, V domains shown)
VH: EVQLVESGGGLVKPGGSLRLSCAASGFTFSDYYMNWIRQAPGKGLEWISYISSSDDTTYYADSVKGRFTISRDNAKNSLYLQMNSLRAEDTAVYYCARDGKYNTVAGDHWGQGTLVTVSS
VL: EIVMTQSPDFQSVAPKEKVTITCRASQNIGSSLHWYQQKPDQSPKLLIKYASQSFSGVPSRFSGSGSGTDFTLTINSLEAEDAATYYCLQSYTLRTFGQGTKVEIKR
Turning to B6, the Kd came to 2.05 nM, the koff is 0.00106 s⁻¹, the kon was found to be 516000 M⁻¹ s⁻¹ and the t1/2 is 11 min.

B7: H2M1233N (antibody, mouse IgG2, V domains shown)
VH: QVVLVESGGGVVQPGRSLRLSCAASGFTFSSYGMHWVRQAPGKGLEWVAVIWYDGSNKYYVDSVKGRFTISRDNSNNTIYLQMNSLRAEDTAVYYCARSLIPVAGTDPIFGYWGQGTLVTVSS
VL: DIQMTQSPSTLSASVGDRVTITCRASQSVSSWLAWYQQKPGKAPKLLIFKASGLESGVPFRFSGSGSGTEFTLTISSLQPDDFATYYCQQYNTYSPTFGQGTKVEIK
The molecule B7 yielded a Kd of 1.4 nM, a koff of 0.000353 s⁻¹, a kon of 253000 M⁻¹ s⁻¹ and a t1/2 of 33 min.

B8: H2M1237N (antibody, mouse IgG2, V domains shown)
VH: QVVLVESGGGVVQPGRSLRLSCAASGFTFSSYGMHWVRQAPGKGLEWVAVIWYDGSIKYYADSVKGRFTISRDNSNNTIYLQMNSLRAEDTAVYYCARALIPVAGTDPIFGYWGQGTLVTVSS
VL: DIQMTQSPSTLSASVGDRVTITCRASQSVSSWLAWYQQKPGKAPKLLIFKTSGLESGVPFRFSGSGSGTEFTLTISSLQPDDFATYYCQQYNTYSPTFGQGTKVEIK
Molecule B8 returned a Kd of 0.982 nM, a dissociation rate constant (koff) of 0.000276 s⁻¹, a kon of 281000 M⁻¹ s⁻¹ and a t1/2 of 42 min.

B9: H2M1242N (antibody, mouse IgG2, V domains shown)
VH: EVQLVESGGGLVRPGGSLRLSCAASGFTFTSYAMNWVRQAPGKGLEWVSSISSYSSYIYIADSVKGRFTLSRDNAKNSLYLQMHSLRPEDTAVYFCAREGYSAYSYFDFWGRGTLVTVSS
VL: DIQMTQSPSTLSASVGDRVTITCRASQSVISWLAWYQQKPGKAPKLLIHRASSLESGVPSRFSGSGSGTEFTLTISGLQPDDFATYYCQQYNTYFPTFGQGTKVEVK
The molecule B9 gave a Kd of 3.14 nM, a koff of 0.000604 s⁻¹, a kon of 192000 M⁻¹ s⁻¹ and a t1/2 of 19 min.

B10: H4H2597B (antibody, human IgG4, V domains shown)
VH: EVQLVESGGGLVQPGGSLRLSCAVSGFTFSNYAMNWVRQAPGKGLEWVSVISDSGRSTYYADSVKGRFTISRDNSKNTLYLQMNSLRAEDTAVYFCAKRYNWNLHYFDYWGQGTTVTVSS
VL: EIVLTQSPDFQSVTPKEKVTITCRASQSIGGSLHWYQQKPDQSPKLLIKYASQSFSGVPSRFSGSGSGTDFTLTINSLEAEDAATYYCLQSSSLRTFGQGTKVEIKR
B10: the Kd was 0.65 nM, the koff is 0.0015 s⁻¹, the kon was found to be 2.31e+06 M⁻¹ s⁻¹ and the t1/2 amounted to 8 min.

B11: H4H2606B (antibody, human IgG4, V domains shown)
VH: EVQLVESGGGLVKPGGSLRLSCAASGFTFSDYYMNWIRQAPGKGLEWVSYISSSGNSIYYADSVKGRFTISRDNAKNSLFLQMSSLRAEDTAVYYCARDGRYNDRRRGYYWGQGTLVTVSS
VL: EIVMTQSPDFQSVTPKEKVTITCRASQSIGSSLHWYQQKPDQSPKLLIKYASQSFSGVPSRFSGSGSGTDFTLTINSLEAEDAATYYCLQSSSLRTFGQGTKVEIKR
The molecule B11 came in with a Kd of 0.765 nM, a koff of 0.000707 s⁻¹, a kon of 924000 M⁻¹ s⁻¹ and a t1/2 of 16 min.

B12: H4H2797P (antibody, human IgG4, V domains shown)
VH: QVQLVESGGGVVLPGRSLRLSCAASGFTFSSYLMYWVRQAPGKGLEWVAVIWYDGSNKFYGDSVKGRFTISRDNSKNTLYLQMNSLRAEDTAVYYCARDNGNSGYEDSWNAFDIWGQGTMVTVSS
VL: DIQMTQSPSSLSASVGDRVTITCRASQDIYNYLAWFQQKPGKAPKSLIYAASSLQTGVPSQFSGSGSGTDFTLTISSLQPEDFATYYCQQYNNYPFTFGPGTKVDIK
On to B12, for which the Kd was determined as 35.4 nM, the koff was 0.00713 s⁻¹, the kon was 202000 M⁻¹ s⁻¹ and the t1/2 is 2 min.

B13: H2M1236N (antibody, mouse IgG2, V domains shown)
VH: QVQLQESGPGLVKPSETLSLTCTVSGGSISNYYWSWIRQPPGKGLEWIGYIYYSGRTNYNPSLKSRVTISVDTSKNQFSLKLRSVTAADTAVYYCARHRITRTADSFDYWGQGTLVTVSS
VL: DIQMTQSPSSLSASVGDRVTITCQASQDITNYLNWYQQKPGKAPKLLIYDASNLETGVPSRFSGSGSGTDFTFTISSLQPEDVATFYCHQYGDLPYTFGQGTKLEIK
Molecule B13 came in with a Kd of 4.55 nM, a koff of 0.00142 s⁻¹, a kon of 312000 M⁻¹ s⁻¹ and a t1/2 of 8 min.

The Kd is the free concentration of one partner at which half of the binding sites on the other are occupied at equilibrium, for simple one-to-one binding. A lower Kd goes with higher affinity. Broadly, the koff is the rate constant with which the complex falls apart. In general, kon refers to the rate constant with which the complex forms. Higher therefore signals faster complex formation.
